Measurements taken from US11161908.

Target: human BAFF-R-GFP fusion protein expressed on the surface of mouse fibroblast (L) cells, clone D2C (human) (UniProt Q96RJ3)
Experiment: flow cytometry, recombinant BAFF at 0.5 ug/10^6 D2C L cells, detected with anti-BAFF-PE, no antibody; unstained cells: 0.0217

percent of cells in the BAFF-PE gate: 59.6%
Substance: recombinant BAFF ligand (from UniProt Q9Y275 134-285)
